The values that follow come from paper PMC10659578, “Mechanism of stepwise electron transfer in six-transmembrane epithelial antigen of the prostate (STEAP) 1 and 2” (eLife, 2023).

Test [1] has as its target Rabbit six-transmembrane epithelial antigen of the prostate 1 (STEAP1) (rabbit).
The target is the same in test [2]. Kind of test: BLI; STEAP1 immobilised on amine reactive second-generation biosensors (EDC/Sulfo-NHS); b5R at 20, 10, 5, 2.5, 1.3 and 0.6 uM; 30 C, 1000 rpm; 20 mM HEPES pH 7.5, 150 mM NaCl, 0.1% LMNG, 0.1% BSA; KD from equilibrium responses (Req) against [b5R].

B1: Mouse cytochrome b5 reductase, soluble form (residues 24-301) (enzyme)
chain: SKVPLKQGRSLMDWIRLTKSGKDLTGLKGGLIEVTEEELKKHNKKEDCWICIRGFVYNVSPYMEYHPGGEDELMRAAGADGTDLFNEVHRWVNYESMLKECLVGRMAVKPAVPKDCHEGKRVLNGMLPKSQMSDTLPRDVTDTLPREDLSSPSYDWFQTESSVTIVVYTKQKNISLDSVIVDLQDDSLRAEAVIKDHSYLVHVGLSHEVQENFSVRVIENVGKIEIVLQKKESVSWQCLGDHLEKHDSFIPKKDTGLYYRRCQLISKEDVTHDTRLFC
Molecule B1 had a rate constant of the B to C conversion (reduction of the heme of 1.5 uM STEAP1 pre-incubated with 1.5 uM b5R after mixing with 10 uM NADH; rapid-scan stopped flow, anaerobic) in test [1] of 0.13 s^–1. This molecule registered a Kd in test [2] of 5.9 µM.
